Test [1] has as its target ACE2, membrane-anchored, endogenously expressed on VeroE6 cells (African green monkey (endogenous in VeroE6)). In words: single-molecule force spectroscopy (AFM) + kinetic model.
The target is the same in test [2]. In words: single-molecule force spectroscopy (AFM).

Take “SARS-CoV-2 Omicron (B.1.1.529) variant Spike trimer (from UniProt P0DTC2) (natural protein)”: in test [1], the bond lifetime at 20 pN (calculated) is 960 s and the bond lifetime at zero force (calculated) is 370000 s. In test [2], the Kd (commonly the concentration at which binding is half-saturated) turned out to be 55 pM, the on-rate of two bonds amounted to 49 s⁻¹, the percentage of one bond came out at 85.4% and the percentage of three bonds was 1%. For the same substance, in test [2], the percentage of two bonds turned out to be 13.6%.
Regarding “SARS-CoV-2 Omicron (B.1.1.529) variant RBD monomer (from UniProt P0DTC2) (domain or fragment)”, in test [2], the Kd amounted to 68 pM.
As for “SARS-CoV-2 Delta variant Spike trimer (from UniProt P0DTC2) (natural protein)”, in test [1], the bond lifetime at 20 pN (calculated) was 460 s and the bond lifetime at zero force (calculated) is 42000 s. Moreover, in test [2], the equilibrium dissociation constant (Kd) was determined as 500 pM, the on-rate of three bonds was determined as 23 s⁻¹, the on-rate of two bonds came to 80 s⁻¹ and the percentage of one bond is 68.7%.
“SARS-CoV-2 Delta variant RBD monomer (from UniProt P0DTC2) (domain or fragment)” yielded a Kd in test [2] of 970 pM.

The record behind these values is article PMC9789309.
